Consider ten variants from IntAct's records for PubMed 31515488.

First the molecules themselves.
B1: UPF0688 protein C1orf174 (Homo sapiens), Q8IYL3 (parent)
chain: MRSRKLTGAVRSSARLKARSCSAARLASAQEVAGSTSAKTACLTSSSHKATDTRTSKKFKCDKGHLVKSELQKLVPKNDSASLPKVTPETPCENEFAEGSALLPGSEAGVSVQQGAASLPLGGCRVVSDSRLAKTRDGLSVPKHSAGSGAEESNSSSTVQKQNEPGLQTEDVQKPPLQMDNSVFLDDDSNQPMPVSRFFGNVELMQDLPPASSSCPSMSRREFRKMHFRAKDDDDDDDDDAEM
B2: Notch homolog 2 N-terminal-like protein A (Homo sapiens), Q7Z3S9 (parent)
chain: MCVTYHNGTGYCKCPEGFLGEYCQHRDPCEKNRCQNGGTCVAQAMLGKATCRCASGFTGEDCQYSTSHPCFVSRPCLNGGTCHMLSRDTYECTCQVGFTGKECQWTDACLSHPCANGSTCTTVANQFSCKCLTGFTGQKCETDVNECDIPGHCQHGGTCLNLPGSYQCQCLQGFTGQYCDSLYVPCAPSPCVNGGTCRQTGDFTFECNCLPETVRRGTELWERDREVWNGKEHDEN
partner: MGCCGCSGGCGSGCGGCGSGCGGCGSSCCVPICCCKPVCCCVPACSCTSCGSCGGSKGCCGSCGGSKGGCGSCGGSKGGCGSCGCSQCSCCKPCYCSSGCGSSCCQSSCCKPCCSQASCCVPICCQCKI
B3: Centrosomal protein of 55 kDa (Homo sapiens), Q53EZ4 (parent)
chain: MSSRSTKDLIKSKWGSKPSNSKSETTLEKLKGEIAHLKTSVDEITSGKGKLTDKERHRLLEKIRVLEAEKEKNAYQLTEKDKEIQRLRDQLKARYSTTTLLEQLEETTREGERREQVLKALSEEKDVLKQQLSAATSRIAELESKTNTLRLSQTVAPNCFNSSINNIHEMEIQLKDALEKNQQWLVYDQQREVYVKGLLAKIFELEKKTETAAHSLPQQTKKPESEGYLQEEKQKCYNDLLASAKKDLEVERQTITQLSFELSEFRRKYEETQKEVHNLNQLLYSQRRADVQHLEDDRHKTEKIQKLREENDIARGKLEEEKKRSEELLSQVQFLYTSLLKQQEEQTRVALLEQQMQACTLDFENEKLDRQHVQHQLHVILKELRKARNQITQLESLKQLHEFAITEPLVTFQGETENREKVAASPKSPTAALNESLVECPKCNIQYPATEHRDLLVHVEYCSK
partner: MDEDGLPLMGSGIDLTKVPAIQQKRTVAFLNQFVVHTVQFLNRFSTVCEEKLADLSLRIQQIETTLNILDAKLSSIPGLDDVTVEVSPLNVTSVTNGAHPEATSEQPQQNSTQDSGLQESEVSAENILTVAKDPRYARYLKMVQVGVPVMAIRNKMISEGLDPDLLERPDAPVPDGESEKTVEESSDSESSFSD
B4: MAGUK p55 subfamily member 2 (Homo sapiens), Q14168-2 (parent)
chain: MPVAATNSETAMQQVLDNLGSLPSATGAAELDLIFLRGIMESPIVRSLAKAHERLEETKLEAVRDNNLELVQEILRDLAHVAEQSSTAAELAHILQEPHFQSLLETHDSVASKTYETPPPSPGLDPTFSNQPVPPDAVRMVGIRKTAGEHLGVTFRVEGGELVIARILHGGMVAQQGLLHVGDIIKEVNGQPVGSDPRALQELLRNASGSVILKILPSYQEPHLPRQVFVKCHFDYDPARDSLIPCKEAGLRFNAGDLLQIVNQDDANWWQACHVEGGSAGLIPSQLLEEKRKAFVKRDLELTPNSGTLCGSLSGKKKKRMMYLTTKNAEFDRHELLIYEEVARMPPFRRKTLVLIGAQGVGRRSLKNKLIMWDPDRYGTTVPYTSRRPKDSEREGQGYSFVSRGEMEADVRAGRYLEHGEYEGNLYGTRIDSIRGVVAAGKVCVLDVNPQAVKVLRTAEFVPYVVFIEAPDFETLRAMNRAALESGISTKQLTEADLRRTVEESSRIQRGYGHYFDLCLVNSNLERTFRELQTAMEKLRTEPQWVPVSWVY
partner: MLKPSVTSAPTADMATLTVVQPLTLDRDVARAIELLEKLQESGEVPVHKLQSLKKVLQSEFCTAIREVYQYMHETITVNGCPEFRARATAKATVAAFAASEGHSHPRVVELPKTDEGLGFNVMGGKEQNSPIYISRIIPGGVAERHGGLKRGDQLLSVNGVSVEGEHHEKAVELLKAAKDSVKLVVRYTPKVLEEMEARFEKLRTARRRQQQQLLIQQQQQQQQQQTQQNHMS
B5: Tuftelin-interacting protein 11 (Homo sapiens), Q9UBB9 (parent)
chain: MSLSHLYRDGEGRIDDDDDERENFEITDWDLQNEFNPNRQRHWQTKEEATYGVWAERDSDDERPSFGGKRARDYSAPVNFISAGLKKGAAEEAELEDSDDEEKPVKQDDFPKDFGPRKLKTGGNFKPSQKGFAGGTKSFMDFGSWERHTKGIGQKLLQKMGYVPGRGLGKNAQGIINPIEAKQRKGKGAVGAYGSERTTQSMQDFPVVDSEEEAEEEFQKELSQWRKDPSGSKKKPKYSYKTVEELKAKGRISKKLTAPQKELSQVKVIDMTGREQKVYYSYSQISHKHNVPDDGLPLQSQQLPQSGKEAKAPGFALPELEHNLQLLIDLTEQEIIQNDRQLQYERDMVVNLFHELEKMTEVLDHEERVISNLSKVLEMVEECERRMQPDCSNPLTLDECARIFETLQDKYYEEYRMSDRVDLAVAIVYPLMKEYFKEWDPLKDCTYGTEIISKWKSLLENDQLLSHGGQDLSADAFHRLIWEVWMPFVRNIVTQWQPRNCDPMVDFLDSWVHIIPVWILDNILDQLIFPKLQKEVENWNPLTDTVPIHSWIHPWLPLMQARLEPLYSPIRSKLSSALQKWHPSDSSAKLILQPWKDVFTPGSWEAFMVKNIVPKLGMCLGELVINPHQQHMDAFYWVIDWEGMISVSSLVGLLEKHFFPKWLQVLCSWLSNSPNYEEITKWYLGWKSMFSDQVLAHPSVKDKFNEALDIMNRAVSSNVGAYMQPGARENIAYLTHTERRKDFQYEAMQERREAENMAQRGIGVAASSVPMNFKDLIETKAEEHNIVFMPVIGKRHEGKQLYTFGRIVIYIDRGVVFVQGEKTWVPTSLQSLIDMAK
partner: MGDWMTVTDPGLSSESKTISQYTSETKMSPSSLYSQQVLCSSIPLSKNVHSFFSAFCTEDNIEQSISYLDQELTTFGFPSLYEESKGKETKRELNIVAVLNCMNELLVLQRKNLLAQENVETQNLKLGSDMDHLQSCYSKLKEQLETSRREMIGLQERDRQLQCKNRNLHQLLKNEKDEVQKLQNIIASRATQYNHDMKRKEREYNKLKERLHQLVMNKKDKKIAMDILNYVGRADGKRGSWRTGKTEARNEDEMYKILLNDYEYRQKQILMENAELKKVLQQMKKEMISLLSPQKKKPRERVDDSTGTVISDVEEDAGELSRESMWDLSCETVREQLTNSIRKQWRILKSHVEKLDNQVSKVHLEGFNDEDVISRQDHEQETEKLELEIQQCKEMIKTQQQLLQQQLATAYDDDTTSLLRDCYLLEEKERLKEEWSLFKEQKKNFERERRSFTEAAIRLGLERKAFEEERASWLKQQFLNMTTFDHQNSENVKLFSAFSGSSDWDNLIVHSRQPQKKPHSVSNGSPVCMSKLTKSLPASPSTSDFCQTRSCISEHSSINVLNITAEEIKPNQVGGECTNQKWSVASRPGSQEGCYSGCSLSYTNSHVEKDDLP
B6: Transcription factor 12 (Homo sapiens), Q99081-3 (parent)
chain: MNPQQQRMAAIGTDKELSDLLDFSAMFSPPVNSGKTRPTTLGSSQFSGSGIDERGGTTSWGTSGQPSPSYDSSRGFTDSPHYSDHLNDSRLGAHEGLSPTPFMNSNLMGKTSERGSFSLYSRDTGLPGCQSSLLRQDLGLGSPAQLSSSGKPGTAYYSFSATSSRRRPLHDSAALDPLQAKKVRKVPPGLPSSVYAPSPNSDDFNRESPSYPSPKPPTSMFASTFFMQDGTHNSSDLWSSSNGMSQPGFGGILGTSTSHMSQSSSYGNLHSHDRLSYPPHSVSPTDINTSLPPMSSFHRGSTSSSPYVAASHTPPINGSDSILGTRGNAAGSSQTGDALGKALASIYSPDHTSSSFPSNPSTPVGSPSPLTGTSQWPRPGGQAPSSPSYENSLHSLKNRVEQQLHEHLQDAMSFLKDVCEQSRMEDRLDRLDDAIHVLRNHAVGPSTSLPAGHSDIHSLLGPSHNAPIGSLNSNYGGSSLVASSRSASMVGTHREDSVSLNGNHSVLSSTVTTSSTDLNHKTQENYRGGLQSQSGTVVTTEIKTENKEKDENLHEPPSSDDMKSDDESSQKDIKVSSRGRTSSTNEDEDLNPEQKIEREKERRMANNARERLRVRDINEAFKELGRMCQLHLKSEKPQTKLLILHQAVAVILSLEQQVRERNLNPKAACLKRREEEKVSAVSAEPPTTLPGTHPGLSETTNPMGHM
partner: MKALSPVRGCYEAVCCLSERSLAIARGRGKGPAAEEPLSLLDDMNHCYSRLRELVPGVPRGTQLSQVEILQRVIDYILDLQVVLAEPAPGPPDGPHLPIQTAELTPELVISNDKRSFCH

One experiment covers variants of B1. As to conditions: with ikzf1_human IKZF1, Q13422.
Chain of ikzf1_human IKZF1, Q13422 (Q13422 whole entry): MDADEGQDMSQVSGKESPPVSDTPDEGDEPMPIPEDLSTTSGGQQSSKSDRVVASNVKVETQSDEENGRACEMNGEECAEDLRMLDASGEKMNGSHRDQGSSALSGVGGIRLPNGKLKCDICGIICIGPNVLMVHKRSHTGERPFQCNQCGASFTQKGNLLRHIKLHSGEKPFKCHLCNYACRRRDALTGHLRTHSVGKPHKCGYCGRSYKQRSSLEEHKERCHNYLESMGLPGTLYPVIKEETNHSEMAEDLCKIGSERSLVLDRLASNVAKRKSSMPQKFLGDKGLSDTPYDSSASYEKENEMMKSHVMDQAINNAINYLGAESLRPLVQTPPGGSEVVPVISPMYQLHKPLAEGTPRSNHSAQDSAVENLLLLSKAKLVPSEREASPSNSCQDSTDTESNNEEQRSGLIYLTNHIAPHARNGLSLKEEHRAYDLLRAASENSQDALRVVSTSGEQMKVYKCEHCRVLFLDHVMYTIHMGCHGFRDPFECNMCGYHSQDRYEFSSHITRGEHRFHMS
For the variant R131C, the “effect of a mutation on the interaction” value was “with no effect”.
The same measure, in the same setting: as for S82A, the entry is “with no effect”; as for V195M, “with no effect”.

Variants of B2 are the subject of another experiment. As to conditions: with kra56_human KRTAP5-6, Q6L8G9.
Take A115T: the “effect of a mutation on the interaction” value is recorded as “with no effect”.
Turning to R74Q, the “effect of a mutation on the interaction” value is on record as “with no effect”.

A further experiment covers variants of B3. To be noted: with wasc3_human WASHC3, Q9Y3C0.
For the variant MSSRSTKDLIKSKWGSKPSNSKSETTLEKLKGEIAHLKTSVDEITSGKGKLTDKERHRFLEKIRVLEAEKEKNAYQLTEKDKEIQRLRDQLKARYSTTTLLEQLEETTREGERREQVLKALSEEKDVLKQQLSAATSRIAELESKTNTLRLSQTVAPNCFNSSINNIHEMEIQLKDALEKNQQWLVYDQQREVYVKGLLAKIFELEKKTETAAHSLPQQTKKPESEGYLQEEKQKCYNDLLASAKKDLEVERQTITQLSFELSEFRRKYEETQKEVHNLNQLLYSQRRADVQHLEDDRHKTEKIQKLREENDIARGKLEEEKKRSEELLSQVQFLYTSLLKQQEEQTRVALLEQQMQACTLDFENEKLDRQHVQHQLHVILKELRKARNQITQLESLKQLHEFAITEPLVTFQGETENREKVAASPKSPTAALNESLVECPKCNIQYPATEHRDLLVHVEYCSK [L59F], the “effect of a mutation on the interaction” value was “with no effect”.

In the next experiment the parent is B4. As to conditions: with lin7a_human LIN7A.
MPVAATNSETAMQQVLDNLGSLPSATGAAELDLIFLRGIMESPIVRSLAKAHERLEETKLEAVRDNNLELVQEILRDLAHVAEQSSTAAELAHILQEPHFQSLLETHDSVASKTYETPPPSPGLDPTFSNQPVPPDAVRMVGIRKTAGEHLGVTFRVEGGELVIARILHGGMVAQQGLLHVGDIIKEVNGQPVGSDPRALQELLRNASGSVILKILPSYQEPHLPRQVFVKCHFDYDPARDSLIPCKEAGLRFNAGDLLQIVNQDDANWWQACHVEGGSAGLIPSQLLEEKRKAFVKRDLELTPNSGTLCGSLSGKKKKRMMYLTTKNAEFDRHELLIYEEVARMPPFRRKTLVLIGAQGVGRRSLKNKLIMWDPDRYGTTVPYTSRRPKDSEREGQGYSFVSRGEMEADVRAGRYLEHGEYEGNLYGTRIDSIRGVVAAGKVCVLDVNPQAVKVLRTAEFVPYVVFIEAPDFETLRAMNRAALESGISTKQLTEADLRWTVEESSRIQRGYGHYFDLCLVNSNLERTFRELQTAMEKLRTEPQWVPVSWVY [R500W]: the “effect of a mutation on the interaction” value is listed as “with no effect”.

In a further experiment the parent is B5. To be noted: with adip_human SSX2IP.
Take R8Q: the “effect of a mutation on the interaction” value is given as “with no effect”.
With S688L, the “effect of a mutation on the interaction” value is on record as “with no effect”.

A further experiment covers variants of B6. To be noted: with id3_human ID3, Q02535.
As to Y120C, the “effect of a mutation on the interaction” value is “with no effect”.
